In patent US20240150440A1 (LUMEN BIOSCIENCE, published 2024):

B1: PP913 MBP-5HVZ-S3a-C5-H6 (VHH)
VHH: QVQLVESGGGLVQPGGSLRLSCAASGSIKNTNAMHWFRQAPGKDREWVAGITSGGNSNYGDSVKGRFTISRDNAKNTVYLQMNSLKPEDTAVYYCAAFGYRYDQDYTYDYWGQGTQVTVSS
notes: Form: Dimer
B2: PP907 MBP-5HVZ-S1b-E11-H6 (VHH)
VHH: QVQLVESGGGLVQPGGSLRLSCAASGSYASIASMHWFRQAPGKEREFVAGVTSGGSTNYGDSVKGRFTISRDNAKNTVYLQMNSLKPEDTAVYYCNALAGANYESQWEEYNYWGQGTQVTVSS
notes: Form: Dimer
B3: PP916 MBP-5HVZ-S3b-A8-H6 (VHH)
VHH: QVQLVESGGGLVQPGGSLRLSCAASGSIISRVKVHWFRQAPGKSREWVAGIDSGTASYYSDSVKGRFTISRDNAKNTVYLQMNSLKPEDTAVYYCAAENRGYGVDWGQGTQVTVSS
notes: Form: Dimer
B4: PP909 MBP-5HVZ-S2b-A7-H6 (VHH)
VHH: QVQLVESGGGLVQPGGSLRLSCAASGSSDSWNALHWFRQAPGKEREFVAGISSAGSGYYADSVKGRFTISRDNAKNTVYLQMNSLKPEDTAVYYCNGYEHTTGYDYWGQGTQVTVSS
notes: Form: Dimer
B5: PP911 MBP-5HVZ-S2b-F7-H6 (VHH)
VHH: QVQLVESGGGLVQPGGSLRLSCAASGSTLSNNAMHWFRQAPGKAREFVAAIGSSDSTDYKDSVKGRFTISRDNAKNTVYLQMNSLKPEDTAVYYCTALLDSGPGEYNYWGQGTQVTVSS
notes: Form: Dimer
B6: PP908 MBP-5HVZ-S2a-C4-H6 (VHH)
VHH: QVQLVESGGGLVQPGGSLRLSCAASGFSESINATAWFRQAPGKQREGVAGLDGGGSDYYSDSVKGRFTISRDNAKNTVYLQMNSLKPEDTAVYYCAAQLTSSFRGYDFTPSNYDYWGQGTQVTVSS
notes: Form: Dimer
B7: PP915 MBP-5HVZ-S3b-A7-H6 (VHH)
VHH: QVQLVESGGGLVQPGGSLRLSCAASGSIASINAIHWVRQAPGKQREEVAAITSGGSTGYADSVKGRFTISRDNAKNTVYLQMNSLKPEDTAVYYCAAQPGQSYAVWGQGTQVTVSS
notes: Form: Dimer
B8: PP914 MBP-5HVZ-S3a-H1-H6 (VHH)
VHH: QVQLVESGGGLVQPGGSLRLSCAASGGIYSPYSMHWFRQAPGKAREWVAGIVGGGGTTYSDSVKGRFTISRDNAKNTVYLQMNSLKPEDTAVYYCNANYQEYDEYDYWGQGTQVTVSS
notes: Form: Dimer
B9: MBP-5HVZ-R5D-G6-H6 (VHH, not shown: large carriers; small tags and cut ends)
VHH: QVQLVESGGGLVQPGGSLRLSCAASGRILAANIVHWYRQAPGKNREGVAGITSGGSTYYADSVKGRFTISRDNAKNTVYLQMNSLKPEDTAVYYCAAKPLGSPDDFDYWGQGTQVTVSS
B10: MBP-5HVZ-R5E-G2-H6 (VHH, not shown: large carriers; small tags and cut ends)
VHH: QVQLVESGGGLVQPGGSLRLSCAASGTIKSINAMHWFRQAPGKAREFVASIGSNGAKSYSDSVKGRFTISRDNAKNTVYLQMNSLKPEDTAVYYCTALITVAESDDYDYWGQGTQVTVSS
B11: PP910 MBP-5HVZ-S2b-C10-H6 (VHH)
VHH: QVQLVESGGGLVQPGGSLRLSCAASGSAFSLNYMAWFRQAPGKQREGVAIIGSGGSSDYADSVKGRFTISRDNAKNTVYLQMNSLKPEDTAVYYCAAQPNGSPDDFDYWGQGTQVTVSS
notes: Form: Dimer
B12: PP1177 MPB-scTRP-PAPA-R2a-F3-H6 (VHH)
VHH: QVQLVESGGGLVQPGGSLRLSCAASGSITSINWMHWFRQAPGKDREGVASISQTGRGSYADSVKGRFTISRDNAKNTVYLQMNSLKPEDTAVYYCAAASRTGTPYNYWGQGTQVTVSS
notes: Form: Trimer

target: SARS-COV-2 Wuhan Reference RBD (SARS-CoV-2, UniProt P0DTC2 319-541); assay: ELISA, RBD coated

**Q.** B1 was tested. Which EC50 did it give?
**A.** 1.53 nM

**Q.** Which EC50 does the source give for B2 here?
**A.** 3 nM

**Q.** For B3, which EC50 is on record?
**A.** 1.19 nM

**Q.** B4 was tested. Which EC50 did it give?
**A.** 0.62 nM

**Q.** With B5 as the binder, how does the EC50 read?
**A.** 2.36 nM

**Q.** With B6 as the binder, how does the EC50 read?
**A.** 1.59 nM

**Q.** B7 was tested. Which EC50 did it give?
**A.** 1.05 nM

**Q.** How did the EC50 turn out when B8 was run?
**A.** 3.24 nM

target: T1, recombinant SARS-CoV-2 RBD with C-terminal AviTag (SARS-CoV-2, UniProt P0DTC2 319-541); assay: not given

**Q.** How did the IC50 turn out when B9 was run?
**A.** 3.2 nM

**Q.** And the Kd?
**A.** 31.3 nM

**Q.** B10 was tested. Which Kd did it give?
**A.** 3.14 nM

target: T1, recombinant SARS-CoV-2 RBD with …; assay: ELISA, competition with coated ACE2-Fc for RBD [Cont. 7]

**Q.** For B1, which IC50 is on record?
**A.** 2.8 nM

**Q.** With B2 as the binder, how does the IC50 read?
**A.** 15.9 nM

**Q.** B3 was tested. Which IC50 did it give?
**A.** 2 nM

**Q.** For B4, which IC50 is on record?
**A.** 5.9 nM

**Q.** B5 was tested. Which IC50 did it give?
**A.** 43.6 nM

**Q.** Which IC50 does the source give for B6 here?
**A.** 13.1 nM

**Q.** For B11, which IC50 is on record?
**A.** 405 nM

**Q.** With B8 as the binder, how does the IC50 read?
**A.** 4.3 nM

target: T1, recombinant SARS-CoV-2 RBD with …; assay: ELISA, competition with coated ACE2-Fc for RBD

**Q.** With B12 as the binder, how does the IC50 read?
**A.** 83.6 nM

target: T1, recombinant SARS-CoV-2 RBD with …; assay: BLI, biotinylated RBD on streptavidin biosensors

**Q.** With B1 as the binder, how does the Kd read?
**A.** 1.42 nM

**Q.** Which Kd does the source give for B3 here?
**A.** 12.1 nM

**Q.** How did the Kd turn out when B4 was run?
**A.** 22.5 nM

**Q.** With B5 as the binder, how does the Kd read?
**A.** 44.3 nM

**Q.** B6 was tested. Which Kd did it give?
**A.** 219 nM

**Q.** Which Kd does the source give for B7 here?
**A.** 2.63 nM

**Q.** B11 was tested. Which Kd did it give?
**A.** 54 nM
